Data on six molecules can be found in PMC3305660, “Regulatory interactions for iron homeostasis in Aspergillus fumigatus inferred by a Systems Biology approach”.

To fix the notation:
B1: srbApmm0 (srbA -735 to -726) (dsDNA)
DNA 1: TTCCCGCGATCATACGATGTGCTCCG
DNA 2: CGGAGCACATCGTATGATCGCGGGAA
B2: hemApmm12 (hemA -338 to -347) (dsDNA)
DNA 1: CTGAGGCAATGAGGCGATGAGGCAAC
DNA 2: GTTGCCTCATCGCCTCATTGCCTCAG
B3: hapXpmm11 (hapX -774 to -783) (dsDNA)
DNA 1: GCCTTTGAATGGGAGGATTCTTTATT
DNA 2: AATAAAGAATCCTCCCATTCAAAGGC
B4: hapXpmm12 (hapX -1340 to -1331) (dsDNA)
DNA 1: CAGATAAGATCAGATGATGAAGGGAT
DNA 2: ATCCCTTCATCATCTGATCTTATCTG
B5: hemApmm11 (hemA -527 to -518) (dsDNA)
DNA 1: TCCCCAGTATCGGATCATACGGCTAC
DNA 2: GTAGCCGTATGATCCGATACTGGGGA
B6: srbApmm0mut (srbA* mutated site) (dsDNA)
DNA 1: TTCCCGCGATATAACATAGTGCTCCG
DNA 2: CGGAGCACTATGTTATATCGCGGGAA

What is called Kd is the concentration at which binding is half-saturated.

For the data set, the target named is T1, SrbA161-267 (bHLHZ DNA-binding domain) (Aspergillus fumigatus, UniProt Q4WIN1 161-267).
T1 sequence: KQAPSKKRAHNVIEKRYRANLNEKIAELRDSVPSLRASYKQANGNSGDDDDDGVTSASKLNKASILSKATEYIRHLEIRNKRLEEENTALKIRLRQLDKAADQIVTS
In words: SPR; SPR kinetics on immobilized biotinylated DNA duplexes; buffer, salt, pH and temperature not given in the material (details in Additional file 2). The settings on record: protein: recombinant; chain copies: 2; label: 5' biotin on strand 1; blunt. Background: SPR reads the build-up and loss of mass on a sensor chip optically.
For the molecule B1, the Kd turned out to be 0.63 ± 0.04 nM.

For the molecule B2, the Kd stood at 35.7 ± 0.52 nM. The same measure for B3: 282 ± 5.1 nM. On to B4, for which the Kd is 4.64 ± 0.03 nM.

As to B5, the Kd was determined as 4.18 ± 0.41 nM.

Consider B6, for which the dissociation constant (Kd) was found to be 386 ± 7.3 nM.
